Test results: the supplement of paper PMC10567573

B1: BTBD1 (parent)
chain: TSAEIELPDVEPAAFLALLRFLYS

Variants of: B1
Test: protein stability index of a GFP-peptide fusion (GPS, HEK-293T) (PSI 1-6); higher = more stable
Settings: c terminus: a fixed tail appended
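Note: lentivirally expressed fusions sorted by FACS into six bins by GFP to DsRed ratio, PSI derived from sequencing read proportions per bin multiplied by bin number.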

Protein stability index of substitutions, site by site:
E11: M 1.32 | N 2.15 | P 1.98 | Q 1.56 | R 2.11 | S 1.73 | T 2.4 | V 1.52 | W 1.69 | Y 2.14
P12: A 1.29 | C 2.3 | D 1.47 | E 2.08 | F 1.84 | G 1.85 | H 2.15 | I 2.24 | K 1.61 | L 1.67 | M 1.46 | N 1.95 | Q 1.19 | R 1.93 | S 2.46 | T 1.41 | V 2.46 | W 1.8 | Y 2.22
A13: C 1.88 | D 2.02 | E 1.85 | F 1.55 | G 1.77 | H 2.16 | I 1.8 | K 2.43 | L 1.81 | M 2.02 | N 2.5 | P 2.05 | Q 1.76 | R 1.73 | S 2.01 | T 2.17 | V 2.02 | W 2.18 | Y 1.59
A14: C 1.84 | D 2 | E 1.66 | F 1.91 | G 2.04 | H 2.04 | I 1.72 | K 1.63 | L 1.4 | M 1.47 | N 1.92 | P 2.05 | Q 1.77 | R 1.87 | S 2.41 | T 1.8 | V 2.28 | W 2.2 | Y 1.8
F15: A 1.69 | C 2.3 | D 2.73 | E 2.31 | G 2.23 | H 1.67 | I 1.95 | K 1.71 | L 1.31 | M 1.43 | N 1.98 | P 2.6 | Q 1.83 | R 2.2 | S 2.04 | T 1.78 | V 1.75 | W 2.89 | Y 2.56
L16: A 2.19 | C 1.99 | D 1.88 | E 2.06 | F 2.06 | G 1.64 | H 1.74 | I 1.62 | K 1.47 | M 1.8 | N 2.01 | P 1.94 | Q 2.31 | R 1.64 | S 1.69 | T 1.87 | V 1.81 | W 1.96 | Y 1.53
A17: C 1.53 | D 1.89 | E 2.12 | F 1.98 | G 2.27 | H 1.67 | I 1.4 | K 1.88 | L 2.04 | M 1.62 | N 2.06 | P 1.75 | Q 1.61 | R 2.42 | S 1.93 | T 2.38 | V 1.99 | W 2 | Y 1.98
L18: A 1.08 | C 1.77 | D 2.64 | E 2.13 | F 1.73 | G 1.86 | H 2.55 | I 2.69 | K 1.95 | M 1.72 | N 1.57 | P 2.11 | Q 1.83 | R 2.03 | S 1.78 | T 1.77 | V 1.37 | W 2.2 | Y 1.59
L19: A 1.9 | C 1.94 | D 3.54 | E 2.31 | F 1.58 | G 1.89 | H 2.05 | I 2.37 | K 2.07 | M 2.05 | N 1.77 | P 2.11 | Q 1.51 | R 1.84 | S 1.69 | T 1.76 | V 1.72 | W 1.98 | Y 2.49
R20: A 2.08 | C 1.19 | D 1.38 | E 1.77 | F 2
